The text below walks through data of the Human Domainome abundance scans (Beltran et al. 2025).

± gives the uncertainty stated by the source.

B1: Protein S100-G, residues 1 to 79; numbered along this chain, P02633 (parent)
chain: MSAKKSPEELKGIFEKYAAKEGDPNQLSKEELKLLLQTEFPSLLKGPSTLDELFEELDKNGDGEVSFEEFQVLVKKISQ

The variants in this data set derive from B1. The data set is described as follows: abundance fitness (aPCA) (normalised: wild type 0, dead -1); higher = more abundant; growth selection in yeast, the domain comes from the species named. The following applies: Bos taurus.
MSAKKSPEELKGIFEKYAAKEGDPNQLSKEELKLLLQTEFPSLLKGPSTIDELFEELDKNGDGEVSFEEFQVLVKKISQ [L50I]: the abundance fitness amounted to 0.009 ± 0.077.

For the variant MSAKKSPEELKGIFEKYAAKEGDPNQLSKEELKLLLQTEFPSLLKGPSTTDELFEELDKNGDGEVSFEEFQVLVKKISQ [L50T], the abundance fitness is -0.013 ± 0.065. Under MSAKKSPEELKGIFEKYAAKEGDPNQLSKEELKLLLQTEFPSLLKGPSTVDELFEELDKNGDGEVSFEEFQVLVKKISQ [L50V] stands 0.082 ± 0.065. In the case of MSAKKSPEELKGIFEKYAAKEGDPNQLSKEELKLLLQTEFPSLLKGPSTGDELFEELDKNGDGEVSFEEFQVLVKKISQ [L50G], the abundance fitness is -0.078 ± 0.066.

Take MSAKKSPEELKGIFEKYAAKEGDPNQLSKEELKLLLQTEFPSLLKGPSTYDELFEELDKNGDGEVSFEEFQVLVKKISQ [L50Y]: the abundance fitness was 0.024 ± 0.085. As for MSAKKSPEELKGIFEKYAAKEGDPNQLSKEELKLLLQTEFPSLLKGPSTSDELFEELDKNGDGEVSFEEFQVLVKKISQ [L50S], the figure is -0.034 ± 0.061; as for MSAKKSPEELKGIFEKYAAKEGDPNQLSKEELKLLLQTEFPSLLKGPSTFDELFEELDKNGDGEVSFEEFQVLVKKISQ [L50F], -0.026 ± 0.083; as for MSAKKSPEELKGIFEKYAAKEGDPNQLSKEELKLLLQTEFPSLLKGPSTCDELFEELDKNGDGEVSFEEFQVLVKKISQ [L50C], 0.042 ± 0.085. As for MSAKKSPEELKGIFEKYAAKEGDPNQLSKEELKLLLQTEFPSLLKGPSDLDELFEELDKNGDGEVSFEEFQVLVKKISQ [T49D], the figure is -0.08 ± 0.095; as for MSAKKSPEELKGIFEKYAAKEGDPNQLSKEELKLLLQTEFPSLLKGPSSLDELFEELDKNGDGEVSFEEFQVLVKKISQ [T49S], 0.018 ± 0.062; as for MSAKKSPEELKGIFEKYAAKEGDPNQLSKEELKLLLQTEFPSLLKGPSHLDELFEELDKNGDGEVSFEEFQVLVKKISQ [T49H], 0.047 ± 0.075. Consider MSAKKSPEELKGIFEKYAAKEGDPNQLSKEELKLLLQTEFPSLLKGPSRLDELFEELDKNGDGEVSFEEFQVLVKKISQ [T49R], for which the abundance fitness is -0.057 ± 0.069.

For the variant MSAKKSPEELKGIFEKYAAKEGDPNQLSKEELKLLLQTEFPSLLKGPSELDELFEELDKNGDGEVSFEEFQVLVKKISQ [T49E], the abundance fitness was -0.026 ± 0.095.

For MSAKKSPEELKGIFEKYAAKEGDPNQLSKEELKLLLQTEFPSLLKGPSGLDELFEELDKNGDGEVSFEEFQVLVKKISQ [T49G], the abundance fitness was -0.043 ± 0.087. Under MSAKKSPEELKGIFEKYAAKEGDPNQLSKEELKLLLQTEFPSLLKGPSQLDELFEELDKNGDGEVSFEEFQVLVKKISQ [T49Q] stands 0.04 ± 0.072; under MSAKKSPEELKGIFEKYAAKEGDPNQLSKEELKLLLQTEFPSLLKGPSKLDELFEELDKNGDGEVSFEEFQVLVKKISQ [T49K], -0.103 ± 0.068. Regarding MSAKKSPEELKGIFEKYAAKEGDPNQLSKEELKLLLQTEFPSLLKGPSNLDELFEELDKNGDGEVSFEEFQVLVKKISQ [T49N], the abundance fitness was -0.109 ± 0.072. As for MSAKKSPEELKGIFEKYAAKEGDPNQLSKEELKLLLQTEFPSLLKGPSPLDELFEELDKNGDGEVSFEEFQVLVKKISQ [T49P], the figure is -0.051 ± 0.063; as for MSAKKSPEELKGIFEKYAAKEGDPNQLSKEELKLLLQTEFPSLLKGPSFLDELFEELDKNGDGEVSFEEFQVLVKKISQ [T49F], 0.032 ± 0.078. Under MSAKKSPEELKGIFEKYAAKEGDPNQLSKEELKLLLQTEFPSLLKGPSMLDELFEELDKNGDGEVSFEEFQVLVKKISQ [T49M] stands -0.081 ± 0.07; under MSAKKSPEELKGIFEKYAAKEGDPNQLSKEELKLLLQTEFPSLLKGPSYLDELFEELDKNGDGEVSFEEFQVLVKKISQ [T49Y], 0 ± 0.073. As for MSAKKSPEELKGIFEKYAAKEGDPNQLSKEELKLLLQTEFPSLLKGPSCLDELFEELDKNGDGEVSFEEFQVLVKKISQ [T49C], the figure is -0.12 ± 0.091; as for MSAKKSPEELKGIFEKYAAKEGDPNQLSKEELKLLLQTEFPSLLKGPSWLDELFEELDKNGDGEVSFEEFQVLVKKISQ [T49W], -0.076 ± 0.087. Take MSAKKSPEELKGIFEKYAAKEGDPNQLSKEELKLLLQTEFPSLLKGPSALDELFEELDKNGDGEVSFEEFQVLVKKISQ [T49A]: the abundance fitness is 0.007 ± 0.074. Under MSAKKSPEELKGIFEKYAAKEGDPNQLSKEELKLLLQTEFPSLLKGPSILDELFEELDKNGDGEVSFEEFQVLVKKISQ [T49I] stands -0.021 ± 0.078.

Turning to MSAKKSPEELKGIFEKYAAKEGDPNQLSKEELKLLLQTEFPSLLKGPVTLDELFEELDKNGDGEVSFEEFQVLVKKISQ [S48V], the abundance fitness is -0.032 ± 0.067. Take MSAKKSPEELKGIFEKYAAKEGDPNQLSKEELKLLLQTEFPSLLKGPMTLDELFEELDKNGDGEVSFEEFQVLVKKISQ [S48M]: the abundance fitness was -0.056 ± 0.076. Under MSAKKSPEELKGIFEKYAAKEGDPNQLSKEELKLLLQTEFPSLLKGPLTLDELFEELDKNGDGEVSFEEFQVLVKKISQ [S48L] stands -0.01 ± 0.056; under MSAKKSPEELKGIFEKYAAKEGDPNQLSKEELKLLLQTEFPSLLKGPRTLDELFEELDKNGDGEVSFEEFQVLVKKISQ [S48R], 0.038 ± 0.064; under MSAKKSPEELKGIFEKYAAKEGDPNQLSKEELKLLLQTEFPSLLKGPYTLDELFEELDKNGDGEVSFEEFQVLVKKISQ [S48Y], 0.016 ± 0.07. Consider MSAKKSPEELKGIFEKYAAKEGDPNQLSKEELKLLLQTEFPSLLKGPPTLDELFEELDKNGDGEVSFEEFQVLVKKISQ [S48P], for which the abundance fitness was 0.015 ± 0.067.

Turning to MSAKKSPEELKGIFEKYAAKEGDPNQLSKEELKLLLQTEFPSLLKGPWTLDELFEELDKNGDGEVSFEEFQVLVKKISQ [S48W], the abundance fitness is -0.048 ± 0.083. As for MSAKKSPEELKGIFEKYAAKEGDPNQLSKEELKLLLQTEFPSLLKGPTTLDELFEELDKNGDGEVSFEEFQVLVKKISQ [S48T], the figure is -0.029 ± 0.064. On to MSAKKSPEELKGIFEKYAAKEGDPNQLSKEELKLLLQTEFPSLLKGPQTLDELFEELDKNGDGEVSFEEFQVLVKKISQ [S48Q], for which the abundance fitness was 0.086 ± 0.075. Under MSAKKSPEELKGIFEKYAAKEGDPNQLSKEELKLLLQTEFPSLLKGPKTLDELFEELDKNGDGEVSFEEFQVLVKKISQ [S48K] stands 0.055 ± 0.073.
